{"source": "paper PMC8137935", "about": "“Mechanosensitive channel YnaI has lipid-bound extended sensor paddles” (Communications Biology, 2021)", "proteins": {"B1": {"name": "YnaI (natural protein, Escherichia coli, UniProt P0AEB5 1-343, looked up)", "chain": "MIAELFTNNALNLVIIFGSCAALILMSFWFRRGNRKRKGFLFHAVQFLIYTIIISAVGSIINYVIENYKLKFITPGVIDFICTSLIAVILTIKLFLLINQFEKQQIKKGRDITSARIMSRIIKITIIVVLVLLYGEHFGMSLSGLLTFGGIGGLAVGMAGKDILSNFFSGIMLYFDRPFSIGDWIRSPDRNIEGTVAEIGWRITKITTFDNRPLYVPNSLFSSISVENPGRMTNRRITTTIGLRYEDAAKVGVIVEAVREMLKNHPAIDQRQTLLVYFNQFADSSLNIMVYCFTKTTVWAEWLAAQQDVYLKIIDIVQSHGADFAFPSQTLYMDNITPPEQGR", "notes": "YnaI, Escherichia coli, full-length, UniProt P0AEB5; in the model residues of TM-2 are built as Ala and N335-R343 have no density; Homoheptamer with co-purified lipids; Cloned into pET52b; also called mechanosensitive channel YnaI; MscS homolog YnaI; source: E. coli BL21(DE3) C43, purified in LMNG (TALON, thrombin cut, TALON flow-through, Superose 6); not shown: His-tag, C-terminal, cleaved"}}, "target": "the molecule itself", "assay": "cryo-EM structure; purified YnaI in LMNG at ~5 mg/ml, with 3 mM fluorinated Fos-Choline-8 added right before freezing; C7 symmetry imposed; 3.3 Å"}
{"protein": "B1", "values": [{"measurement": "stoichiometry N", "value": 7}]}
